# Results published in publication doi:10.1101/2025.04.22.649924.
# Biological target: ectodomain of APP^695
# Test: SPR
row,SPR sensorgram peak (response units) [RU],Substance
1,1650,"SORLA^N1358S ectodomain (soluble mutant SORLA ectodomain, hexa-His-tagged) (from UniProt Q92673 82-2137) (domain or fragment)"
2,1750,"SORLA^WT ectodomain (soluble wildtype SORLA ectodomain, hexa-His-tagged) (from UniProt Q92673 82-2137) (domain or fragment)"
